Molecular target: bovine serum albumin (bovine, UniProt P02769 25-607)
Test: GM1-ELISA binding assay

bovine serum albumin, sequence (P02769 25-607 limits assumed): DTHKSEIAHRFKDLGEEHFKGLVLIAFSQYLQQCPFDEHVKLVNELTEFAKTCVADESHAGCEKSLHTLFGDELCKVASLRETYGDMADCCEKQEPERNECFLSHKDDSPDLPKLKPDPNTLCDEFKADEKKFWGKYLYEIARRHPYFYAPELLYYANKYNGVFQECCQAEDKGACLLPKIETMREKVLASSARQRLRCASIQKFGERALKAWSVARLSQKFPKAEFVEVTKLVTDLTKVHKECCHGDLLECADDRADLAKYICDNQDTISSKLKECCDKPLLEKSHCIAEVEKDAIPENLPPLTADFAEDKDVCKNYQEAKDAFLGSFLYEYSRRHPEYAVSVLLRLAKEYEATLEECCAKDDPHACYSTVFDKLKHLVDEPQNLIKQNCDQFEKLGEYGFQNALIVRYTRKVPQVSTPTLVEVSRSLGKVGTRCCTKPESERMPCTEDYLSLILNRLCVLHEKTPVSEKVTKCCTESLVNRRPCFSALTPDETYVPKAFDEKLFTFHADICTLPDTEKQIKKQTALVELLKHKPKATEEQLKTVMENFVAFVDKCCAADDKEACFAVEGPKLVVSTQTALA

B1: bacterial cholera toxin B subunit (CTB), pentameric (other)
chain: TPQNITDLCAEYHNTQIYTLNDKIFSYTESLAGKREMAIITFKNGAIFQVEVPGSQHIDSQKKAIERMKDTLRIAYLTEAKVEKLCVWNNKTPHAIAAISMAN
  binding result: no binding
